Laboratory results reported in PMC6572768, “THETA system allows one-step isolation of tagged proteins through temperature-dependent protein–peptide interaction” (Communications Biology, 2019).

T1: recombinant chicken cryptochrome 4, full-length, untagged (chicken)
T1 construct: chicken cryptochrome 4 (cCRY4); last residue Thr529; calculated molecular mass 61,063 Da; also called cCRY4; non-tagged cCRY4; source: budding yeast MaV203, overexpressed, in soluble extract
T1 chain: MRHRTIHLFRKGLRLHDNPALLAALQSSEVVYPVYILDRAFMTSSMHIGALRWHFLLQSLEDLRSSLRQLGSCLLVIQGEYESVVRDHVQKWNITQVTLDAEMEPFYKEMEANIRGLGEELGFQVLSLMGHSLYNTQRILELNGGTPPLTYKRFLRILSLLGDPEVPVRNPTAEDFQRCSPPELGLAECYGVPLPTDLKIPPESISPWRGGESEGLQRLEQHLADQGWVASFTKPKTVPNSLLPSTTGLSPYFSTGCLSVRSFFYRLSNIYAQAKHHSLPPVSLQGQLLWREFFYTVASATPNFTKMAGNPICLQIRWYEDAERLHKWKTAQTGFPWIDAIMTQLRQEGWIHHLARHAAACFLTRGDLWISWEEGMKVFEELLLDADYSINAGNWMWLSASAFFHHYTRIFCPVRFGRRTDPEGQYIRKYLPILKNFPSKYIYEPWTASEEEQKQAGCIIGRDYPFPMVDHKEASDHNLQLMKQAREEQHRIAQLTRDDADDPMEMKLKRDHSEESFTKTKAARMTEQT

T2: GST-cCRY4CCE (chicken)
T2 construct: chicken cryptochrome 4 (cCRY4) C-terminal region, Asp470-Thr529; also called cCRY4 C-terminal extension (CCE)
T2 chain: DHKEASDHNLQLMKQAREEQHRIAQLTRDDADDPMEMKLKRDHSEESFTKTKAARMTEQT

B1: MBP-C13scFv-His (scFv, V domains shown)
VH: EVKLEESGGGLVQPGGSLRLSCATSGFTFTDYYMSWVRQPPGKALEWLGFIRNKANVYTTEYSASVKGRFTISRDNSQSILYLQMNTLRAEDSATYYCARDGGYDDGGYAMDYWGQGTSVTVSS
VL: DIVMTQSHKFMSTSVGDRVSITCKASQDVGTAVAWYQQKPGQSPKLLIYWASTRHTGVPDRFTGSGSGTDFTLTISNVQSEDLADYFCQQYSSYPYTFGGGTKLEIK
notes: C13 variable light (VL); (GGGGS)3 linker; C13 variable heavy (VH); Order VL-linker-VH in pET-22b(+); also called MBP-THETAL-His; THETAL; not shown: MBP, N-terminal, kept; His6, C-terminal, kept
B2: GST-CT9 (peptide)
chain: TKTKAARMTEQT

How the values were obtained:
[1] = biological target: T1, recombinant chicken cryptochrome 4, …; test: pull-down; renatured MBP-THETAL-His immobilised on Affi-Gel 15; crude extract mixed with the gel at 4 °C, washed, eluted by warming to 42 °C or 37 °C; conditions: one partner purified
GST-cCRY4CCE = biological target: T2, GST-cCRY4CCE; test: ELISA; MBP-C13scFv-His refolded at various pH, dialysed against PBS pH 7.4, titrated on cCRY4CCE; detected with anti-6xHis antibody; EC50 by the Rodbard model
[2] = biological target: C13 monoclonal antibody (mouse); test: ELISA; indirect competitive ELISA at 4, 15, 26 and 37 °C; antibody mixed with serially diluted antigen until equilibrium, then 15 min on a well coated with GST-cCRY4CCE (1 μg/mL for C13 mAb); SM/TBS; affinity constants by fit to a model formula

Binder | binding result [1] | binding result (GST-cCRY4CCE) | fold of the affinity constant at 4 °C over that at 37 °C [2]
B1 | binds | binds | –
B2 | – | – | 480 times
